Measured values as given in IntAct's records for PubMed 21098279.

B1: "Secreted effector protein EspF(U)" (Escherichia coli O157:H7), P0DJ88 (parent)
chain: MINNVSSLFPTVNRNITAVYKKSSFSVSPQKITLNPVKISSPFSPSSSSISATTLFRAPNAHSASFHRQSTAESSLHQQLPNVRQRLIQHLAEHGIKPARSMAEHIPPAPNWPAPPPPVQNEQSRPLPDVAQRLVQHLAEHGIQPARNMAEHIPPAPNWPAPPLPVQNEQSRPLPDVAQRLVQHLAEHGIQPARSMAEHIPPAPNWPAPPPPVQNEQSRPLPDVAQRLMQHLAEHGIQPARNMAEHIPPAPNWPAPTPPVQNEQSRPLPDVAQRLMQHLAEHGIQPARNMAEHIPPAPNWPAPTPPVQNEQSRPLPDVAQRLMQHLAEHGINTSKRS
partner: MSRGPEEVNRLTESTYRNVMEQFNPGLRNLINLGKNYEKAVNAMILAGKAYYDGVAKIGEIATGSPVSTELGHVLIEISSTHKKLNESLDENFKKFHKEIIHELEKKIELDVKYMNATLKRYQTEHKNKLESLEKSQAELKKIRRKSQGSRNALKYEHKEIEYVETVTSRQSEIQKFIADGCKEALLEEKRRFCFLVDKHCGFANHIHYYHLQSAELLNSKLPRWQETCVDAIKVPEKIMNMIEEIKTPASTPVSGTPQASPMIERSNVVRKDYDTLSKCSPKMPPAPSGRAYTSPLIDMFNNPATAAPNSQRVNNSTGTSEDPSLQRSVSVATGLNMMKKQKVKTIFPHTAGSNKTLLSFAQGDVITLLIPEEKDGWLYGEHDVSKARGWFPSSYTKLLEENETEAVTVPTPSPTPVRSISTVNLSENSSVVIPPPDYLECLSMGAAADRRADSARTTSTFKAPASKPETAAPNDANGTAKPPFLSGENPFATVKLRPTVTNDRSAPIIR

Variants of: B1
Conditions: with bi2l1_human BAIAP2L1, Q9UHR4

Row | Variant | effect of a mutation on the interaction
1 | N299A;W300A;P301A | decreasing interaction
2 | N299P;W300P | decreasing interaction
3 | N299G;W300G;P301G | decreasing interaction
